Here are results for 4 substances from publication PMC7933433.

Experiment [1] addresses PGR5a fused to the N-terminal part of YFP (PGR5a-YFP^n) (cucumber (Cucumis sativus L.)). In words: split reporter (BiFC, NanoBiT); halves of YFP, transient expression in N. benthamiana leaves, confocal microscopy on the third day; also after 30 min in the dark (state 1) or red light (state 2).
Experiment [2] addresses cyt b6f complex of cucumber thylakoid membranes (cucumber (endogenous in cucumber thylakoids)). The experiment can be described thus: native gel or EMSA; blue native PAGE of thylakoid membranes (cucumber or tobacco) dissolved in an equal volume of 2% DM, 4 °C, followed by immunoblotting with anti-PGR5; leaf discs also arrested in state 1 or state 2, dark or red light, or incubated with Put. A general note: A gel shift assay detects complexes by their altered migration in electrophoresis.

In experiment [1], “Lhcb3 fused to the C-terminal part of YFP (Lhcb3-YFP^c) (natural protein)” had a YFP fluorescence intensity (BiFC), stronger in state 2 than in state 1 of 64%. Take “PetC fused to the C-terminal part of YFP (PetC-YFP^c) (natural protein)”: in experiment [1], the YFP fluorescence intensity (BiFC), stronger in state 1 than in state 2 was 64%.

On to “PsaH fused to the C-terminal part of YFP (PsaH-YFP^c) (natural protein)”, for which the YFP fluorescence intensity (BiFC), stronger in state 2 than in state 1 in experiment [1] stood at 67%. “native PGR5 protein of cucumber thylakoid membranes (natural protein)” displayed a PGR5 abundance in the cyt b6f complex, higher in state 1 than in state 2 in experiment [2] of 40%.
